Laboratory results taken from PMC6051998.
One block for each substance: values may come before it.

Assays:
[1] = target: MffΔTM (residues 1–217), dimeric variant; experiment: SEC-MALS; MffΔTM (100 μM) and GST (100 μM) on Superose 6 10/300 GL
[2] = target: glutathione S-transferase (GST); experiment: as above
[3] = target: Drp1 short GG (minimal GTPase-GED construct of Drp1, short splice variant) (human) (UniProt O00429); experiment: SEC-MALS; GG constructs after 30 min at room temperature with the transition-state analog GDP.AlFx (2 mM GDP, 4 mM MgCl2, 2 mM AlCl3, 20 mM NaF); Drp1 GG 25 μM, Dyn1 GG and GG-PRD 15 μM; Superdex 75 10/300 GL

glutathione S-transferase (GST) (enzyme), sequence (P08515 2-218): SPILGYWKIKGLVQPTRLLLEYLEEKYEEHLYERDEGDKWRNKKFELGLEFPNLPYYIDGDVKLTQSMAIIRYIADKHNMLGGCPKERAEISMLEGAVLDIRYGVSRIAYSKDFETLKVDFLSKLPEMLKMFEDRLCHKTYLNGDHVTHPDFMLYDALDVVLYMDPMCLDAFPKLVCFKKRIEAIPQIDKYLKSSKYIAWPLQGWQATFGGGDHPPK

- stoichiometry N [1]: 2
Substance: MffΔTM (residues 1–217), dimeric variant (domain or fragment)

- stoichiometry N [2]: 2
Substance: glutathione S-transferase (GST) (enzyme)

- stoichiometry N [3]: 2
Substance: Drp1 short GG (minimal GTPase-GED construct of Drp1, short splice variant) (from UniProt O00429-4 1-327; O00429-4 1-327) (domain or fragment)
